What was measured:
[1] = molecular target: HLA-A*30:01; assay: IEDB peptide-MHC binding, purified MHC/competitive/fluorescence; filed as Kd, often an IC50 or EC50 that approximates it; ≥ and ≤ were set here for values at or beyond the usual limits of such assays
[2] = molecular target: HLA-A*02:01; assay: as above
[3] = molecular target: HLA-B*08:01; assay: as above; conditions: source organism: Coxiella burnetii RSA 493
[4] = molecular target: HLA-B*39:01; assay: as above; conditions: source organism: Coxiella burnetii RSA 493
[5] = molecular target: HLA-A*01:01; assay: as above; conditions: source organism: Coxiella burnetii RSA 493
[6] = molecular target: HLA-B*15:01; assay: as above
[7] = molecular target: HLA-B*40:01; assay: IEDB peptide-MHC binding, purified MHC/direct/fluorescence; filed as Kd, often an IC50 or EC50 that approximates it; ≥ and ≤ were set here for values at or beyond the usual limits of such assays
[8] = molecular target: HLA-A*03:01; assay: as above
[9] = molecular target: HLA-B*15:17; assay: as above
[10] = molecular target: HLA-A*69:01; assay: as above
[11] = molecular target: HLA-B*48:01; assay: as above
[12] = molecular target: HLA-B*27:05; assay: as above
[13] = molecular target: HLA-B*46:01; assay: as above
[14] = molecular target: HLA-A*26:01; assay: as above
[15] = molecular target: HLA-A*26:02; assay: as above; conditions: source organism: Coxiella burnetii Q321
[16] = molecular target: HLA-B*58:01; assay: as above
[17] = molecular target: HLA-A*26:03; assay: as above; conditions: source organism: Coxiella burnetii Q321
[18] = molecular target: HLA-A*11:01; assay: as above
[19] = molecular target: HLA-B*57:01; assay: as above
[20] = molecular target: HLA-A*31:01; assay: as above
[21] = molecular target: HLA-A*02:50; assay: IEDB peptide-MHC binding, purified MHC/competitive/fluorescence; filed as Kd, often an IC50 or EC50 that approximates it; ≥ and ≤ were set here for values at or beyond the usual limits of such assays
[22] = molecular target: HLA-A*24:03; assay: IEDB peptide-MHC binding, purified MHC/direct/fluorescence; filed as Kd, often an IC50 or EC50 that approximates it; ≥ and ≤ were set here for values at or beyond the usual limits of such assays; conditions: source organism: Salmonella enterica subsp. enterica serovar Typhimurium
[23] = molecular target: HLA-B*07:02; assay: as above
[24] = molecular target: HLA-B*44:02; assay: as above
[25] = molecular target: HLA-A*02:01; assay: as above
[26] = molecular target: HLA-B*08:01; assay: as above
[27] = molecular target: HLA-A*01:01; assay: as above
[28] = molecular target: HLA-B*15:01; assay: as above
[29] = molecular target: HLA-B*48:01; assay: IEDB peptide-MHC binding, purified MHC/competitive/fluorescence; filed as Kd, often an IC50 or EC50 that approximates it; ≥ and ≤ were set here for values at or beyond the usual limits of such assays; conditions: source organism: Giardia lamblia ATCC 50803
[30] = molecular target: HLA-A*26:02; assay: as above; conditions: source organism: Orthomarburgvirus marburgense
[31] = molecular target: HLA-B*38:01; assay: IEDB peptide-MHC binding, purified MHC/direct/fluorescence; filed as Kd, often an IC50 or EC50 that approximates it; ≥ and ≤ were set here for values at or beyond the usual limits of such assays
[32] = molecular target: HLA-B*39:01; assay: as above; conditions: source organism: Marburg virus - Musoke, Kenya, 1980
[33] = molecular target: HLA-A*68:02; assay: as above; conditions: source organism: Marburg virus - Musoke, Kenya, 1980
[34] = molecular target: HLA-B*08:02; assay: as above
[35] = molecular target: HLA-C*05:01; assay: as above; conditions: source organism: Orthomarburgvirus marburgense
[36] = molecular target: HLA-B*15:09; assay: as above
[37] = molecular target: HLA-B*18:01; assay: as above
[38] = molecular target: HLA-A*24:02; assay: as above; conditions: source organism: Escherichia coli O157:H7
[39] = molecular target: HLA-B*15:42; assay: IEDB peptide-MHC binding, purified MHC/competitive/fluorescence; filed as Kd, often an IC50 or EC50 that approximates it; ≥ and ≤ were set here for values at or beyond the usual limits of such assays; conditions: source organism: Mycobacterium tuberculosis C
[40] = molecular target: HLA-B*83:01; assay: as above; conditions: source organism: Mycobacterium tuberculosis C
[41] = molecular target: HLA-B*45:06; assay: as above; conditions: source organism: Mycobacterium tuberculosis C
[42] = molecular target: HLA-B*51:01; assay: IEDB peptide-MHC binding, purified MHC/direct/fluorescence; filed as Kd, often an IC50 or EC50 that approximates it; ≥ and ≤ were set here for values at or beyond the usual limits of such assays; conditions: source organism: Mycobacterium tuberculosis
[43] = molecular target: HLA-C*12:03; assay: as above; conditions: source organism: Coxiella burnetii RSA 331
[44] = source organism: Coxiella burnetii RSA 493
[45] = source organism: Coxiella burnetii
[46] = source organism: Salmonella enterica subsp. enterica serovar Typhimurium
[47] = source organism: Orthomarburgvirus marburgense
[48] = source organism: Marburg virus - Musoke, Kenya, 1980
[49] = source organism: Ravn virus - Ravn, Kenya, 1987
[50] = source organism: Escherichia coli O157:H7
[51] = source organism: Mycobacterium tuberculosis
[52] = source organism: Mycobacterium tuberculosis str. Haarlem

Measured: Kd

EIYRTLYGL
2.74 µM: [4]
0.182 µM: [17]
4.29 µM: [5]
0.067 µM: [14]; source organism: Coxiella burnetii Q321
7 µM: [3]
0.0014 µM: [10]; [45]
0.384 µM: [9]; [45]
2.47 µM: [1]; [44]
≥ 20 µM: [2]; [44] | [6]; [44] | [7]; [45] | [8]; [45] | [11]; [45] | [12]; [45] | [13]; [45] | [16]; [45] | [18]; [45] | [19]; [45] | [20]; [45]
0.006 µM: [15]

FMIDWILDA
0.003 µM: [25]; [46]
≥ 20 µM: [22] | [7]; [46] | [8]; [46] | [23]; [46] | [24]; [46] | [26]; [46] | [12]; [46] | [14]; [46] | [27]; [46] | [16]; [46] | [18]; [46] | [20]; [46]
≤ 0.0001 µM: [21]; source organism: Aeromonas salmonicida subsp. salmonicida
0.264 µM: [28]; [46]
0.056 µM: [10]; [46]

GMYGHPFAL
0.0283 µM: [29]

IFDDLQGSL
3.84 µM: [35]
≥ 20 µM: [1]; [47] | [2]; [47] | [30] | [7]; [48] | [31]; [49] | [9]; [48] | [10]; [48] | [23]; [48] | [11]; [48] | [32] | [12]; [48] | [33] | [34]; [49] | [13]; [48] | [36]; [49] | [27]; [48] | [37]; [48] | [28]; [48] | [16]; [48] | [19]; [48]

LLDPLYFEV
≥ 20 µM: [7]; [50] | [8]; [50] | [23]; [50] | [24]; [50] | [38] | [12]; [50] | [13]; [50] | [28]; [50] | [16]; [50] | [18]; [50] | [20]; [50]
≤ 0.0001 µM: [21]; source organism: Escherichia coli 536
0.0042 µM: [25]; [50]

RPAGARAAF
0.245 µM: [40]
≥ 5 µM: [39] | [41]
6.85 µM: [26]; [52]
≥ 20 µM: [6]; source organism: Mycobacterium tuberculosis C | [7]; [51] | [31]; [52] | [8]; [51] | [9]; [51] | [10]; [51] | [11]; [51] | [25]; [51] | [12]; [51] | [34]; [52] | [13]; [51] | [14]; [52] | [36]; [52] | [27]; [51] | [16]; [51] | [18]; [51] | [42] | [19]; [51] | [20]; [51]
11.8 µM: [37]; [51]

YTYPIAHTA
0.0025 µM: [10]; [45]
0.004 µM: [43]
0.852 µM: [25]; [45]
0.0011 µM: [21]; source organism: Coxiella burnetii RSA 331
